Results: patent US20040052799

Target: T1, N-succinyl-Ala-Ala-Pro-Phe-p-nitroanilide
T1 chain: AAPF

B1: Recombinant H. pylori peptidyl-prolyl cis-trans isomerase (ppiB), His-tagged (protein)
chain: FIAIIEHLNDKSLSQRFMMKPIKTYDIKEEELAKTAYATIKTNKGNITLELFYKDAPQAVSNFVTLAKEGFYNGLNFHRVIAGFVAQGGCPYGTGTGGPEHRIKCEVAHNPNKHQRGSISMAHAGRDTGGSQFFLCFVDLPHLDGEHTVFGKITSAESLSVLDKIKQGDIIESVVFSPSL
B1 was tested, and the kcat was “This corresponds to a kcat of 1.6 sec^-1”.
